Test results from patent publication US20140073761A1, “CONJUGATES CONTAINING HYDROPHILIC SPACER LINKERS” (priority 2007, published 2014).
Like-named read-outs stand apart in the source and are kept apart here. Marks after values point to notes of the source that are not given here.

Legend:
[1] = design: AUC (DAVLBH biliary excretion): unit not given beside the values; settings: rat, in vivo, iv
[2] = Method: Toxicity as Measured by Weight Loss. The percentage weight change was determined in mice (5 mice/group) on selected days post-tumor inoculation (PTI), compared to controls, and graphed.
[3] = Serum binding, 30K NMWL filtration, HPLC-UV; format: in vitro ADME; settings: 50 μM compound in serum, n=3
Method: Serum Binding. Serum binding of Folate-DAVLBH conjugates containing hydrophilic spacer linkers compared to Comparative Example EC 145 lacking a hydrophilic spacer linker 50 μM compound in serum with 30K NMWL filtration and evaluation by HPLC-UV detection (n=3).

in vivo = experiment: in vivo; design: species or system mice; settings: for MTD: mouse, in vivo, read-out: Single Dose MTDapp
[4] = Multiple dose MTD, i.v. TIW for 1 week; settings: mouse, in vivo, iv, Balb/c mice
Method: EC0436 and Comparative Example EC0305 were also administered i.v. to Balb/c mice TIW for 1 week. The resulting MTD for the multiple dose was EC0305 ([…]) and EC0436 ([…]).

[5] = Hepatobiliary excretion (bile clearance) in bile duct cannulated rats; settings: 2 μmol/kg i.v. bolus
Excerpt: Comparison of Bile Clearance (% ID) of unconjugated drug, drug conjugate lacking a hydrophilic spacer linker, and conjugates described herein.

20S proteosome = experiment: Inhibition of LPS stimulated proteosome activity in RAW 264.7 cells (FIG. 18); format: cell-based; settings: 5 h pulse/24 h chase, LPS 100 ng/mL
[6] = Cell viability, XTT, 5 h pulse/72 h chase (FIG. 16); format: cell-based
RAW264.7 cells = format: cell-based; settings: for RAW264.7 Cells Competable with xs folate: excess folic acid
Method: In Vitro Concentration-Dependent Cytotoxic Activity. Cells were heavily seeded in 24-well Falcon plates and allowed to form nearly confluent monolayers overnight. Thirty minutes prior to the addition of test article, spent medium was aspirated from all wells and replaced with fresh folate-free RPMI (FFRPMI). […] Treated cells were pulsed for 2 h at 37° C., rinsed 4 times with 0.5 mL of media, and then chased in 1 mL of fresh media up to 70 h. Spent media was aspirated from all wells and replaced with fresh media containing 5 μCi/mL ^3H-thymidine. Following a further 2 h 37° C. incubation, cells were washed 3 times with 0.5 mL of PBS and then treated with 0.5 mL of ice-cold 5% trichloroacetic acid per well. After 15 min, the trichloroacetic acid was aspirated and the cell material solubilized by the addition of 0.5 mL of 0.25 N sodium hydroxide for 15 min. Four hundred and fifty μL of each solubilized sample were transferred to scintillation vials containing 3 mL of Ecolume scintillation cocktail and then counted in a liquid scintillation counter. Final tabulated results were expressed as the percentage of ^3H-thymidine incorporation relative to untreated controls.
As shown in the figures herein, dose-dependent cytotoxicity was measurable, and in most cases, the IC50 values (concentration of drug conjugate required to reduce ^3H-thymidine incorporation into newly synthesized DNA by 50%) were in the low nanomolar range. […] The following table illustrated data for selected compounds against KB cells and against RAW264.7 cells

[7] = Cytotoxicity of bortezomib versus EC0501 (FIG. 14); format: cell-based
[8] = FIG. 3B, M109 tumors, TIW 3 μmol/kg, 3 wks
[9] = mice, single dose, EC0234 dose limited by solubility
[10] = FIG. 6B, 7B, 8B, M109 tumors, Balb/c mice, 2 μmol/kg TIW two weeks

With `CC[C@]1(O)C[C@H]2CN(CCc3c([nH]c4ccccc34)[C@@](C(=O)OC)(c3cc4c(cc3OC)N(C)[C@H]3[C@@](O)(C(=O)NNC(=O)OCCSSC[C@H](NC(=O)[C@H](CC(=O)O)NC(=O)[C@H](CC(=O)O)NC(=O)[C@H](CCCNC(=N)N)NC(=O)[C@H](CC(=O)O)NC(=O)CC[C@H](NC(=O)c5ccc(NCc6cnc7nc(N)[nH]c(=O)c7n6)cc5)C(=O)O)C(=O)O)[C@H](O)[C@]5(CC)C=CCN6CC[C@]43[C@@H]65)C2)C1` [EC145, reference compound] the “AUC (DAVLBH biliary excretion)” value [1] was 1092, the “percent of total dose in the bile (total DAVLBH biliary excretion)” value [1] was 8.7% and the “gross toxicity (percentage body weight change)” value ([2]; mouse, in vivo) was “no gross toxicity was observed”. The fraction unbound at 50 μM ([3]; human, read-out: Human Serum (% Bound) (converted)) was 0.457 and the fraction unbound at 50 μM ([3]; mouse, read-out: Mouse Serum (% Bound) (converted)) was 0.327.
With `CC[C@]1(O)C[C@H]2CN(CCc3c([nH]c4ccccc34)[C@@](C(=O)OC)(c3cc4c(cc3OC)N(C)[C@H]3[C@@](O)(C(=O)NNC(=O)OCCSSC[C@H](NC(=O)[C@@H](NC(=O)CC[C@H](NC(=O)c5ccc(NCc6cnc7nc(N)[nH]c(=O)c7n6)cc5)C(=O)O)[C@@H](O)[C@H](O)[C@H](O)CO)C(=O)O)[C@H](O)[C@]5(CC)C=CCN6CC[C@]43[C@@H]65)C2)C1` [EC0234, Mono-Saccharo-Folate Vinblastine Conjugate] the “gross toxicity (percentage body weight change)” value [2, 8] was “no gross toxicity was observed” and the MTD (in vivo; [9]) was 12 µmol/kg.
With `CC[C@]1(O)C[C@H]2CN(CCc3c([nH]c4ccccc34)[C@@](C(=O)OC)(c3cc4c(cc3OC)N(C)[C@H]3[C@@](O)(C(=O)NNC(=O)OCCSSC[C@H](NC(=O)[C@@H](NC(=O)[C@H](CC(=O)O)NC(=O)[C@@H](NC(=O)CC[C@H](NC(=O)c5ccc(NCc6cnc7nc(N)[nH]c(=O)c7n6)cc5)C(=O)O)[C@@H](O)[C@H](O)[C@H](O)CO)[C@@H](O)[C@H](O)[C@H](O)CO)C(=O)O)[C@H](O)[C@]5(CC)C=CCN6CC[C@]43[C@@H]65)C2)C1` [EC0246, Bis-Saccharo-Folate Vinblastine Conjugate] the “gross toxicity (percentage body weight change)” value [2, 8] was “no gross toxicity was observed”, the mice died (in vivo; at 20 μmol/kg single dose) was “**⅓ mice died at 20 μmol/kg” and the “Single Dose MTDapp” value (in vivo; [9]) was <20** μmol/kg.
`CC[C@]1(O)C[C@H]2CN(CCc3c([nH]c4ccccc34)[C@@](C(=O)OC)(c3cc4c(cc3OC)N(C)[C@H]3[C@@](O)(C(=O)NNC(=O)OCCSSC[C@H](NC(=O)[C@@H](NC(=O)[C@H](CC(=O)O)NC(=O)[C@@H](NC(=O)[C@H](CC(=O)O)NC(=O)[C@@H](NC(=O)CC[C@H](NC(=O)c5ccc(NCc6cnc7nc(N)[nH]c(=O)c7n6)cc5)C(=O)O)[C@@H](O)[C@H](O)[C@H](O)CO)[C@@H](O)[C@H](O)[C@H](O)CO)[C@@H](O)[C@H](O)[C@H](O)CO)C(=O)O)[C@H](O)[C@]5(CC)C=CCN6CC[C@]43[C@@H]65)C2)C1` [EC0263, Tris-Saccharo-Bis-Asp-Folate Vinblastine Conjugate] gave an MTD (in vivo; [9]) greater than 20 µmol/kg.
With `CCCC(=O)OCN(C(=O)[C@@H](NC[C@H]1CCCCN1C)C(C)CC)[C@H](C[C@@H](OC(C)=O)c1nc(C(=O)N[C@@H](Cc2ccc(O)cc2)C[C@H](C)C(=O)NNC(=O)OCCSSC[C@H](NC(=O)[C@H](CC(=O)O)NC(=O)[C@H](CCCNC(=N)N)NC(=O)[C@H](CC(=O)O)NC(=O)CC[C@H](NC(=O)c2ccc(NCc3cnc4nc(N)[nH]c(=O)c4n3)cc2)C(=O)O)C(=O)O)cs1)C(C)C` (some centres unmarked) [EC0305, reference compound] the MTD at 1 week [4] was 6 µmol/kg and the “gross toxicity (percentage body weight change)” value [2, 10] was “no gross toxicity was observed”.
In the case of `CC[C@]1(O)CC2CN(CCc3c([nH]c4ccccc34)[C@@](C(=O)OC)(c3cc4c(cc3OC)N(C)C3C45CCN4CC=C[C@](CC)(C45)[C@@H](O)[C@]3(O)C(=O)NNC(=O)OCCSSC[C@H](NC(=O)C[C@H](NC(=O)C[C@H](NC(=O)CN3CCN(CCNC(=O)C[C@H](NC(=O)CC[C@H](NC(=O)c4ccc(NCc5cnc6nc(N)[nH]c(=O)c6n5)cc4)C(=O)O)C(=O)O)CC3)C(=O)O)C(=O)O)C(=O)O)C2)C1` (some centres unmarked) [EC0429], the “percent of total dose in the bile (total DAVLBH biliary excretion)” value [5] is reported as 8.6% and the “gross toxicity (percentage body weight change)” value [2, 10] is reported as “no gross toxicity was observed”.
In the case of `CC(C)C[C@H](NC(=O)[C@H](Cc1ccccc1)NC(=O)c1cnc(CSSC[C@H](NC(=O)[C@H](CCC(=O)NC[C@H](O)[C@@H](O)[C@H](O)[C@H](O)CO)NC(=O)[C@H](CCC(=O)O)NC(=O)[C@H](CCC(=O)NC[C@H](O)[C@@H](O)[C@H](O)[C@H](O)CO)NC(=O)[C@H](CCC(=O)O)NC(=O)[C@H](CCC(=O)NC[C@H](O)[C@@H](O)[C@H](O)[C@H](O)CO)NC(=O)CC[C@H](NC(=O)c2ccc(NCc3cnc4nc(N)[nH]c(=O)c4n3)cc2)C(=O)O)C(=O)O)cn1)B(O)O` [EC0525], the IC50 (20S proteosome) is reported as roughly 30 nM, the IC50 [6] is reported as 46 nM and the “RAW264.7 Cells Competable with xs folate” value (RAW264.7 cells) is reported as “Yes”.
`CC(C)C[C@H](NC(=O)[C@H](Cc1ccccc1)NC(=O)c1cnc(CSSC[C@H](NC(=O)[C@H](CCC(=O)NC[C@H](O)[C@@H](O)[C@H](O)[C@H](O)CO)NC(=O)[C@H](CCC(=O)O)NC(=O)[C@H](CSSCc2cnc(C(=O)N[C@@H](Cc3ccccc3)C(=O)N[C@@H](CC(C)C)B(O)O)cn2)NC(=O)[C@H](CCC(=O)NC[C@H](O)[C@@H](O)[C@H](O)[C@H](O)CO)NC(=O)[C@H](CCC(=O)O)NC(=O)[C@H](CCC(=O)NC[C@H](O)[C@@H](O)[C@H](O)[C@H](O)CO)NC(=O)CC[C@H](NC(=O)c2ccc(NCc3cnc4nc(N)[nH]c(=O)c4n3)cc2)C(=O)O)C(=O)O)cn1)B(O)O` [EC0595] gave an IC50 (20S proteosome) of roughly 30 nM, an IC50 [6] of 13 nM and an IC50 (RAW264.7 cells) of 4 nM. For the same compound, the “RAW264.7 Cells Competable with xs folate” value (RAW264.7 cells) was “Yes”.
`CC(C)C[C@H](NC(=O)[C@H](Cc1ccccc1)NC(=O)c1cnccn1)B(O)O` [bortezomib] gave an IC50 [7] of 20 nM.
